In the nanobody polyreactivity screen of Harvey et al. (2022):

test: yeast display, Sf9 membrane polyspecificity reagent, FACS + sequencing; frameworks hold sequencing errors
How it was run: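 A nanobody's polyreactivity label depends on the gate it was sorted from. Yeast display cells were stained with 10% biotinylated, detergent-solubilized Sf9 membrane reagent for 1 hour at 4 °C, enriched on streptavidin microbeads and sorted by FACS. The low and high (top ~1%) gates were set on anti-HA fluorescence for expression and streptavidin fluorescence for reagent binding.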

| Sequence | polyreactivity (PSR sort gate) |
| --- | --- |
| QVQLVESGGGLVQAGGSLRLSCAASGRIFVRNAMGWYRPAPGKERELVAGITRGGGTNFADSVKGSFTISRDNAKNTVYLQMNSLKPEVTAVYDCNALHRARLFGHYPYESWGHGTQVTVSS | high polyreactivity |
| QVQLVESGGGLVQAGGSLRLSCAASGRIFVRNAMGWYRQAPGKERELVAAISWSSGGPYYADSVKGRFTISRDNAKNTVYLQMNSLKPDDTAVYYCNADPSRAGDYWGQGTQVTVSS | low polyreactivity |
| QVQLVESGGGLVQAGGSLRLSCAASGRIFVRNAMGWYRQAPGKERELVADITNGGSTNYADSVKGRFTISRDNAKNTVYLQMNSLKPEDTAVYYCAADTLGVYDGDYWGQGTQVTVSS | low polyreactivity |
| QVQLVESGGGLVQAGGSLRLSCAASGRIFVRYAKGWYRQAPGKERELVAAISRSGGSTYYADSVKGRFTISRDNAKNTVYLQMNSLKPEDTAVYYCNAAYWRRYYQLEDYWGQGTQVTVSS | high polyreactivity |
| QVQLVESGGGLVQAGGSLRLSCAASGRIFVRYAMGWSRQAPGKEREMVAAISSSGGRTYYADSVKGRFTISRDNAKNTVYLQMNSLNAEDTAVYYCAARWVQYGVRYDYWGQGTQVTVSS | high polyreactivity |
| QVQLVESGGGLVQAGGSLRLSCAASGRIFVRYAMGWYRQAPGKERELVAAISKGGSSTYYADSVKGRFTISRDNAKNTVYLQMNSLKPEDTAVYYCAARVHGTGTLKYPNYYWGQGTQVTVSS | high polyreactivity |
| QVQLVESGGGLVQAGGSLRLSCAASGRIFVRYAMGWYRQAPGKERELVAAISYRGGSTYYADSVKGRFTISRDNAKNTVYLLMNSLKPEDTAVYYCAARNSYGNWSYYYWGQGTQVTLSS | high polyreactivity |
| QVQLVESGGGLVQAGGSLRLSCAASGRIFVRYAMGWYRQAPGKERELVATITKNGGRTYYADSVKGRFTISRDNAKNTVYLQMNSLKPEDTAVYYCAARPTYVADHLRYGYWGQGTQVTVSS | high polyreactivity |
| QVQLVESGGGLVQAGGSLRLSCAASGRIFVRYAMGWYRQAPGKESEFVADIDGGGGRTYADSVKGRFTISRDNAKNTVYLLMNSLKPEDTAVYYCNAYVYSIHWCDLYWSEYDYWGQGTQVTVSS | high polyreactivity |
| QVQLVESGGGLVQAGGSLRLSCAASGRIFVRYVMGWYRQAPGKERELVAAITKSGASTYYADSVKGRFTISRDNAKNTVYLQMNSLKPEDTAVYYCNRDLVDSYGYWGQGTQVTVSS | high polyreactivity |
| QVQLVESGGGLVQAGGSLRLSCAASGRIFVSNAMGWYRQAPGKERELVAAISKSGGRTYYADSVKGRFTISRVNAKNTVYLQMNSLKPEDTAVYYCAARSRVSPRYDYWGQGTQVTVSS | high polyreactivity |
| QVQLVESGGGLVQAGGSLRLSCAASGRIFVSNARGWYRQSPGKECELVAAISKSAARTAYADSVKGRFTISRDTAKNTVYLQMNSLKPEDTAVYYCNADRYRLYGESKGEGNYWGQGTQVTVSS | high polyreactivity |
| QVQLVESGGGLVQAGGSLRLSCAASGRIFVSNGMGWYRQAPGKESELVAVIRSSTGSTYYADSVKGRFTISRDNAKNTVYLQMNSLKPEDTAVYYCAAPNPFFEPSEYDYWAQGTQVTVSS | low polyreactivity |
| QVQLVESGGGLVQAGGSLRLSCAASGRIFVSYAMGWYRQAPGKERELVAAINWNGDRTYYADSVKGRFTISRDNAKNTVYLQMNSLKPEDSAVYYCNTDSILLPYDYWGQGTQVTVSS | low polyreactivity |
| QVQLVESGGGLVQAGGSLRLSCAASGRIFVSYAMGWYRQAPGKERELVAAINWNGDRTYYADSVKGRFTISRDNATNTVYLQMNSLKPEDTAVYYCNTDSILLPYDYWGQGTQVTVSS | low polyreactivity |
| QVQLVESGGGLVQAGGSLRLSCAASGRIFVSYAMGWYRQAPGKERELVAGISSSGGSTYYADSVKGRFTISRDNAKNTVYLQMNSLKPEDTAVYYCNTDQRSRMDYWGQGTQVTVSS | low polyreactivity |
